One data set has as its target T1, papain enzyme (Carica papaya, UniProt P00784).
T1 sequence (P00784 134-345): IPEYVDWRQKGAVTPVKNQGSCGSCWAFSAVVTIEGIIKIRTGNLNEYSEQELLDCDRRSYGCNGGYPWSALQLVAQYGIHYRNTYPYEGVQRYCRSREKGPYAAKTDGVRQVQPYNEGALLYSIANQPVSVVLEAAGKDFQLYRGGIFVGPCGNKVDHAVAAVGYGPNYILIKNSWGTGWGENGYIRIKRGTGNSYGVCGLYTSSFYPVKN
The data set can be described thus: Enzyme specificity: cleavage by papain enzyme, analysed by HPLC. It counts as biochemical. As for the experimental part:
After adsorbing the sample to a C18 column (Xbridge C18, Waters, MS, USA), it was analyzed by HPLC (Agilent Technologies, CA, USA) while eluting for 30 minutes with concentration gradients using 0.1% TFA/5-95% ACN solutions.

The next data set concerns HPRT gene. The data set can be described thus: Silencing effect for HPRT gene expression (RT-PCR, agarose gel). Format: cell-based, rat. Particulars: CT26.CL25 cells, 4 hours serum-free then 2 days.
The test system of a further data set is HT-29 cells. The data set can be described thus: Intracellular delivery (uptake) by confocal microscopy. It counts as cell-based, human. As for the experimental part: First, 2×10^5 HT-29 cells, which are human-derived colon cancer cells, were seeded onto a 35-mm cover glass bottom dish. […] Then, CD47 SiRNA was stained red by using the TOTO3 stain. Next, after treating with the fusion protein-siRNA complex separated and purified in Example 2 at a concentration of 100 pmol/mL, the cells were cultured for 4 hours in a carbon dioxide incubator at 37 °C. Then, the cells were treated with a fixative and the SIRPα protein was stained green using FITC-labeled His-tag antibody. After staining the nuclei of the cells by treating with a 4',6-diamidino-2-phenylindole (DAPI) solution for 10 minutes, fluorescence was measured by confocal microscopy.
In the figure, the blue color corresponds to the nuclei of the cells, the red color to the CD47 siRNA, and the green color to the SIRPα protein.

Another data set relates to CD47 gene. In words: Silencing effect for CD47 gene expression (RT-PCR, agarose gel). It counts as cell-based, mouse. The conditions noted are these: CT26.CL25 cells, 4 hours serum-free then 2 days, without CD47 antibody (-).
The test system of data set [1] is macrophages (bone marrow-derived macrophages, BMDM). The data set can be described thus: Macrophage phagocytosis of treated cancer cells (fluorescence microscopy). Format: cell-based, mouse. On the procedure: After the culturing was completed, the CT26.CL25 cells were stained with pHrodo Red (Invitrogen, CA, USA) and, after adding macrophages (bone marrow-derived macrophages, BMDM) extracted from the bone marrow of a laboratory mouse (C57BL/6, male, 6-week-old), cultured for 3 hours in RPMI 1640 medium. The macrophages were stained with Green Cell Tracker (Thermo Fisher Scientific, MS, USA) and fluorescence was measured using a fluorescence microscope (Nikon, Japan).
A control group was treated only with the SIPRα protein.

The test system of another data set is cancer cells. In words: Pharmacological effect on cancer cells (general statement, no method given).
A further data set concerns CT26.CL25 cells. The data set can be described thus: Cytotoxicity by CCK-8 (cell counting kit-8). It counts as cell-based, mouse. Particulars: 800 nM, 72 hours. On the procedure: Then, the cells were analyzed using the CCK-8 (cell counting kit-8) kit.

One may read the cell viability as the share of living cells, or the viability signal relative to a control. Read a low cell viability as a greater loss of cells.

B1: Example 2: Immunoregulatory fusion protein (SIRPα-linker, SEQ ID NO 1) bound 1 : 1 via cysteine thiol-maleimide to CD47 siRNA (SEQ ID NO 17/18) (conjugate)
chain 1: EEELQIIQPDKSVLVAAGETATLRCTITSLFPVGPIQWFRGAGPGRVLIYNQRQGPFPRVTTVSDTTKRNNMDFSIRIGNITPADAGTYYCIKFRKGSPDDVEFKSGAGTELSVRAKPVDGGFLGGGGCG
chain 2: gggauauuaauacuacuucaguacaca
chain 3: uguacugaaguauuaauauccccg
modifications: cysteine thiol-maleimide conjugation of protein to siRNA; fusion protein; siRNA_DNA : The 26th and 27th nucleotide sequences are DNA; siRNA ansti sense
B1: the “SIRPα protein detected by HPLC” value was “detected after treating with the papain enzyme” with papain enzyme (after treating with the papain enzyme, room temperature, 10 minutes) and “not detected” in the data set with papain enzyme (complex not treated with the papain enzyme (control)). For the same molecule, the “expression level of the HPRT gene” value in the data set with HPRT gene was “little change in the expression level of the HPRT gene”. Besides, in the data set with HT-29 cells (confocal microscopy), the absorption into cells result is on record as “effectively absorbed into cells”. For the same molecule, the intracellular uptake result in the data set on HT-29 cells (treated together with the CD47 antibody) is given as “decreased significantly”. For the same molecule, the “expression of the CD47 gene” value with CD47 gene was “decreases the expression of the CD47 gene to a level comparable to that of the lipofectamine-siRNA complex”. In data set [1] (CT26.CL25 cells treated at 200 pmol/mL for two days, then BMDM for 3 hours, compared with siRNA alone), the phagocytosis by macrophages result is “enhances phagocytosis by macrophages better than when the siRNA was used alone”. Besides, the “effect of enhancing macrophage phagocytosis as compared to only the siRNA (CD47 siRNA) or the SIPRα protein” value in data set [1] (printed as 1.5-3 times or higher) is listed as 1.5-3 times. The “superior pharmacological effect on cancer cells as compared to the fusion protein or the siRNA administered alone” value with cancer cells was 1.5-5 times. The cell viability with CT26.CL25 cells is recorded as at least 80%.

Source of the values: patent EP4197559A1, “IMMUNOMODULATORY PROTEIN-SIRNA COMPLEX HAVING ANTICANCER ACTIVITY” (Korea Institute of Science and Technology, priority 2020, dated 2022).
